Source: patent US20140322196A1

Key:
[1] = target: Hemagglutinin (HA) of Influenza SW [change] 1089/09 swine pandemic H1N1 (inactivated subunits, vaccine) (Influenza A virus SW [change] swine pandemic H1N1); assay: cell-based or functional assay
[2] = target: Hemagglutinin (HA) of Avian 29/05/06 H5N1 (inactivated vaccine) (Influenza A virus Avian 29/05/06 H5N1); assay: cell-based or functional assay

Substance | HI titre [1] [fM] | HI titre [2] [fM]
Lactoferrin from bovine milk (bLf) (from UniProt P24627 20-708) | 46.5 | 2900
… (SEQ ID NO: 1), bLf C-lobe peptide 418-429 | 5.8 | 18
… (SEQ ID NO: 2), bLf C-lobe peptide 506-522 | 46 | 70
